# Results reported in patent CN109021107A (JIANGSU RUONAIBO BIOLOGY MEDICAL TECH CO LTD, dated 2018).
# Residue numbers refer to the chain shown, from its start.
# T1: recombinant human PDL2 (human, UniProt Q9BQ51 20-220, limits assumed)
# T1 construct: also called 人PDL2
# T1 sequence (looked up): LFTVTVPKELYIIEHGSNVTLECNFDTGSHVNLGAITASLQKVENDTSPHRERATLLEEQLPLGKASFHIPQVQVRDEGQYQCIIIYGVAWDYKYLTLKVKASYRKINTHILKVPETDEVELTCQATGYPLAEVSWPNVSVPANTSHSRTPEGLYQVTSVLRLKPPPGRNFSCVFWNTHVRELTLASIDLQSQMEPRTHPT
# T2: recombinant human B7-1 (human, UniProt P33681 35-242, limits assumed)
# T2 construct: also called 人B7-1
# T2 sequence (looked up): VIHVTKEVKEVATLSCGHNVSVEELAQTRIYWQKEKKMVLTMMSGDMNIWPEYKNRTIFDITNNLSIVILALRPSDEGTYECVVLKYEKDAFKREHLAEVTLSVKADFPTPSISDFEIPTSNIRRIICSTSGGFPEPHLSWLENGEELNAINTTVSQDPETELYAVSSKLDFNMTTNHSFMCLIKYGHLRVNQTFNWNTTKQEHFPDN
# T3: recombinant human B7-2 (human, UniProt P42081 24-247, limits assumed)
# T3 construct: also called 人B7-2
# T3 sequence (looked up): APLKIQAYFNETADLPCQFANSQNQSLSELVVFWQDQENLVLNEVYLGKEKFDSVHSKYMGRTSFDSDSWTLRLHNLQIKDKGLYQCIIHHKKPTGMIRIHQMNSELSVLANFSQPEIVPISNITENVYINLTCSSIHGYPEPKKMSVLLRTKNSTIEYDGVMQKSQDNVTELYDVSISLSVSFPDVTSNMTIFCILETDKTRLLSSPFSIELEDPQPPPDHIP
# B1: HUL01 (antibody, human IgG1, kappa, N297A, V domains shown)
# VH: EVQLQESGPGLVKPSQTLSLTCTVSGDSFSSGYWNWIRQHPGKGLEYIGYVSYTGSTYYIPSLKSRVTISRDTSKNQFSLKLSSVTAADTAVYYCAGYRDWLHGYFDYWGQGTTVTVSS
# VL: DIQMTQSPSSLSASVGDRVTITCKASQNVGTNVAWYQQKPGKAPKRLIYSASYRFSGVPSRFSGSGSGTEFTLTISSLQPEDFATYYCQQYNGYPLTFGQGTKLEIKR
# notes: expressed in 293C18 cells, Protein A purified; also called clone1; clone2
# B2: HUL02 (antibody, human IgG1, kappa, N297A, V domains shown)
# VH: B1 VH
# VL: B1 VL with G30M, T31D
# notes: also called clone4; PD-L1抗体HUL02
# B3: HUL01 scFv displayed on phage (scFv)
# scFv: EVQLQESGPGLVKPSQTLSLTCTVSGDSFSSGYWNWIRQHPGKGLEYIGYVSYTGSTYYIPSLKSRVTISRDTSKNQFSLKLSSVTAADTAVYYCAGYRDWLHGYFDYWGQGTTVTVSSGGGGSGGGGSGGGGSDIQMTQSPSSLSASVGDRVTITCKASQNVGTNVAWYQQKPGKAPKRLIYSASYRFSGVPSRFSGSGSGTEFTLTISSLQPEDFATYYCQQYNGYPLTFGQGTKLEIK
# notes: also called clone1; clone2
# B4: HUL02 scFv displayed on phage (scFv)
# scFv: B3 scFv with G164M, T165D
# notes: Phage clone from the library built on the HUL01 scFv template; also called clone4
# B5: murine monoclonal antibody specifically binding PD-L1 (hybridoma clone of Example 1) (antibody, V domains shown)
# VH: EVQLQESGPSLVQPSQTLSLTCSVTGDSFTSGYWNWIRKFPDNKLQYMGYVSYTGSTYYIPSLKSRISITRDTSKNQYFLQLNSVTSEDTATYFCAGYRDWLHGYFDYWGQGTTLTVSS
# VL: DIVMTQSQKFMSTSIGDRVSVTCKASQNVGTNVAWYQLKPGQSPKALIYSASYRFSGVPDRFTGSGSGTEFTLTITNVQSEDLTDYFCQQYNGYPLTFGAGTKLEVK
# notes: Mouse IgG from hybridoma supernatant; also called 鼠源特异性结合PD-L1单克隆抗体; 鼠源抗体
# Experiments:
# [1] = molecular target: T4, PD-L1 on PD-L1 overexpressing cells (human, UniProt Q9NZQ7 19-290); experiment: cell binding, PD-L1 overexpressing cells, anti-human-IgG-Eu fluorescence
# T4 construct: whole, on cells; also called PD-L1过表达细胞; PD-L1稳定过表达CHO细胞株
# T4 sequence (Q9NZQ7 19-290): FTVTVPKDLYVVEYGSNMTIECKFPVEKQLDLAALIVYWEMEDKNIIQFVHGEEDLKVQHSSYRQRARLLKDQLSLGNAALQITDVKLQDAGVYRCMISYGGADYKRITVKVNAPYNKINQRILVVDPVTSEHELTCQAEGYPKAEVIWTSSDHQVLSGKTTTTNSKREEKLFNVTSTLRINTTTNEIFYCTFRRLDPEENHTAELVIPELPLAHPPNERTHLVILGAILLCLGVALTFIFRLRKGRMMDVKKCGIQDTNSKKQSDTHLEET
# [2] = molecular target: T5, recombinant PD-L1-Fc protein (human, UniProt Q9NZQ7 19-238, limits assumed); experiment: competition ELISA, coated PD-L1-Fc, competitor biotinylated PD1 0.5ug/ml
# T5 construct: also called 重组PD-L1-Fc蛋白; PD-L1重组蛋白; not shown: Fc part
# T5 sequence (Q9NZQ7 19-238 limits assumed): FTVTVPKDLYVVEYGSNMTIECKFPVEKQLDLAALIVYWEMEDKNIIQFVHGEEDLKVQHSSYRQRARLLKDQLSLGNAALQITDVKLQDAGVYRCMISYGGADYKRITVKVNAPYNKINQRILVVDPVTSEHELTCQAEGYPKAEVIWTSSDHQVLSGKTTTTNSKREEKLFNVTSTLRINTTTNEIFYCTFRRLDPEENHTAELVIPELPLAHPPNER
# [3] = molecular target: T4, PD-L1 on PD-L1 overexpressing cells; experiment: inhibition of biotinylated PD1 binding to PD-L1 overexpressing cells, Eu-streptavidin
# recombinant human PDL2 = molecular target: T1, recombinant human PDL2; experiment: ELISA, coated recombinant protein, anti-human IgG-HRP
# recombinant human B7-1 = molecular target: T2, recombinant human B7-1; experiment: as above
# recombinant human B7-2 = molecular target: T3, recombinant human B7-2; experiment: as above
# [4] = molecular target: T6, recombinant PD-L1-His protein (human, UniProt Q9NZQ7 19-238); experiment: SPR, BIAcore T200, antibody captured by goat anti-human IgG on CM5 chip, 300nM PD-L1-HIS as analyte
# T6 construct: also called 重组PD-L1-HIS蛋白; PD-L1蛋白; not shown: His tag
# T6 sequence (Q9NZQ7 19-238 limits assumed): as above
# [5] = molecular target: T4, PD-L1 on PD-L1 overexpressing cells; experiment: cell-based or functional assay
# [6] = molecular target: T6, recombinant PD-L1-His protein; experiment: ELISA, coated PD-L1-HIS, donkey anti-human IgG-HRP
# [7] = molecular target: T4, PD-L1 on PD-L1 overexpressing cells; experiment: phage cell-binding ELISA on PD-L1 overexpressing cells, anti-M13-HRP
# [8] = molecular target: T6, recombinant PD-L1-His protein; experiment: hybridoma supernatant screen, ELISA on coated PD-L1-His
Binder,EC50 [1],IC50 [2],IC50 [3],binding result [7],also measured
B1,0.13 µg/mL,0.117 µg/mL,0.228 µg/mL,–,–
B2,0.0695 µg/mL,0.0716 µg/mL,0.115 µg/mL,–,"binding result (recombinant human PDL2): no binding (tested: 1ug/ml); binding result (recombinant human B7-1): no binding (tested: 1ug/ml); binding result (recombinant human B7-2): no binding (tested: 1ug/ml); Kd [4]: 0.17 nM; 刺激T淋巴细胞IL-2分泌的EC50 (MLR, CD4+ T cells and DC) [5]: 0.062 µg/mL; EC50 [6]: 0.0206 µg/mL"
B3,–,–,–,binds,–
B4,–,–,–,binds,–
B5,–,–,–,–,binding result [8]: binds
